Patent US20240124857A1, “COMPOSITION FOR GUT HEALTH” (DUPONT NUTRITION BIOSCIENCES APS, priority 2021, published 2024)

B1: CRC21322: Acid phosphatase (Class A), accession AEG96708.1, SEQ ID NO:17 (protein)
chain: KENKGFLNADTSPDSLAILPPPPTENSVAFLQDKADYETGRVLKNKERTELAAKDANYKNFGQAFSEAFGMVISAERTPVLYLLLSEVLQDSHDYAMRSAKDHYMRVRPFVLYKNPTCTPEKDDKMAKTGSYPSGHASFGWAAALVLAEINPARETEILKRGMDFGESRVVCGAHWQSDVDSGRIMGAAVVAALHANPRFANTLSEAKKEFAALSAKSE
modifications: Klebsiella aerogenes
B2: CRC21323: Acid phosphatase (Class A), accession WP_054306375.1, SEQ ID NO:18 (predicted mature), SEQ ID NO:2 (protein, listed as Serratia rubidaea)
chain: AQTPGFLTPETAPDSLQILPPPPAENTTAFLNDKAAYETGKTLKDAQRQALAASDADYKNISAAFSAAFGEEISPEKTPALYALLQGVLQDSHDYAMRAAKDHYMRVRPFVVYKDSTCTPEKDKSMAKTGSYPSGHASFGWATALVLTEINPARETEILKRGYDFGQSRVVCGAHWQSDVDNGRLMGAAVVAALHGNQGFNDALAKAKAEFAKR
B3: CRC22105: GDA1/CD39 family enzyme, accession WP_045094910.1, SEQ ID NO:8 (protein, listed as Legionella fallonii)
chain: ENASCDKHQCITVIDAGSTGSRVHIYAYDLDETNTPTNINEIWTKKIKPGFATIDPNYNTIDAYLTILLSGAPTQQGPVYFYATAGMRLLPASKQKLYYQELQRWFTQQTQWHFVEAKTITGNEEALYDWLSVNYHLGTLKSVQNKAIGVMDMGGASVQIVFPIQKNENIHGRSQVELNIYGQRINLFVHSFLGLGQTEMSHQFLNSTSCFTNDYPLPDGEMGLGNALSCEQEVSSLMNAVHGVSKTIQPVLAANSVDSWYAIGGLTNLADNKLFNFVNGQLTNQSLIEQADSQICHQQWSKLDAQYPNDDYIYGYCLFSSYFYALMVDGYGISPEQTVNYISPSINLDWTKGVVLHHLS
B4: CRC21328: GDA1/CD39 family enzyme, accession CCD05982.1, SEQ ID NO:6 (protein, listed as Legionella pneumophila)
chain: DTNPCEKHSCIAVIDAGSTGSRLHIYSYDTDNTNTPIHIEEIWNKKIKPGFASIQPNSVTIDAYLTMLLADAPIHNIPVYFYATAGMRLLPQSQQKKYYDELEYWFRQQSQWQLVEAKTITGNDEALFDWLAVNYKLDTLKSVQNKSVGVMDMGGASVQIVFPMPKNAEISKHNQVELNIYGQNINLYVHSFLGLGQTEMSHQFLNSPSCFANDYPLPDGESGQGNAPSCKEEVTSLMNSVHKVNQQIQPLLALNPVNEWYSIGGISNLASSQLFHFENSELTNQSLLQQGDNQICHQQWDILNGQYPDDEYLYQYCLLSSYYYALMVDGYGINPNQTIHYIPPEQNLDWTIGVVLHRA

Assays:
[1] = Enzyme acid resistance: residual activity on ATP after incubation at pH 2; assay type: physicochemical; conditions: FIG. 4; for stability in acid resistance assay: pH 2 for 15 or 60 min
Protocol: Enzyme acid resistance: Candidate enzymes were tested for their ability to resist inactivation at low pH by incubating the enzymes in an “acid buffer” of 50 mM glycine and 5 mM CaCl2 at pH 2 for 15 or 60 minutes and comparing their activity to enzymes in a “control buffer” at their optimum pH. The optimum buffer for CRC21323 and CRC21322 was 50 mM acetate pH 4.5 with 5 mM CaCl2. The optimum buffer for all other enzymes was 50 mM bis-Tris pH 6.5 with 5 mM CaCl2. After incubating in the acidic glycine buffer, the enzyme mixtures were neutralized by mixing with an equal volume of neutralization buffer. The neutralization buffer for CRC21323 and CRC21322 was 100 mM acetate and 10 mM CaCl2 at pH 4.5. The neutralization buffer for the other enzymes was 100 mM bis-Tris and 10 mM CaCl2 at pH 6.5. Next, the acid-stressed and control enzyme were tested for their ability to release phosphate from ATP using the reaction conditions and malachite green assay as described in with the following changes. The only substrate tested was ATP. CRC21323 and CRC21322 were tested with a buffer of acetate pH 4.5, but all other enzymes were tested in a buffer of bis-Tris pH 6.5. After determining the concentration of phosphate in each reaction, the residual activity of each enzyme after 15 or 60 min incubation in the “acid buffer” was calculated by dividing the acid-stressed by the control enzyme phosphate concentrations for each enzyme.

[2] = ATPase activity at 0.05 ppm enzyme on 0.1 mM ATP (absorbance 620 nm); assay type: biochemical; conditions: for Activity on ATP (absorbance at 620 nm, blank subtracted), pH 5.0: 50 mM IVIES buffer pH 5; for Activity on ATP (absorbance at 620 nm, blank subtracted), pH 6.0: 50 mM IVIES buffer pH 6
Protocol: Enzyme activity towards ATP or ADP at pH 3 to 9: The ability of candidate enzymes to degrade ATP or ADP to AMP and free phosphate (Pi) was measured using a standard malachite green phosphate detection kit (Sigma Aldrich cat no. MAK307). The enzyme reactions were carried out in 96-well plates with a total volume of 150 μL and contained 250 μM of a substrate, 50 mM of a buffer, 5 mM CaCl2, and a variable concentration of enzyme. The substrate was ATP or ADP. The buffer was glycine (pH 3), acetate (pH 4, 4.5, 5), bis-Tris (pH 5.5, 6, 6.5), or Tris (pH 7, 8, 9). The concentration of enzyme varied from about 1 μg/mL to 1 ng/mL and was adjusted based on the activity of the enzyme so that the amount of phosphate released during the assay was with the dynamic range of the assay (5-100 μM phosphate). The enzyme concentration was determined by the absorbance at 280 nm and using the predicted molecular weight and molar extinction coefficient to calculate the concentration. The enzyme reaction was initiated by the addition of 15 μL enzyme with 135 μL of the other reaction components such that the final reaction composition was as previously described. The reaction was stopped after 5 min by mixing 80 μL of the reaction mixture with 20 μL of the malachite green working reagent. The malachite green working reagent was prepared according to the manufacturer's protocol by mixing 100 parts reagent A with 1 part reagent B. Phosphate standard solutions (0-80 μM) and a negative control reaction without enzyme were also mixed with the malachite green working reagent. All samples were tested in duplicate. The malachite green reaction mixture was allowed to rest at room temperature for 45-60 min and the absorbance at 620 nm was measured. Lastly, the absorbance of the phosphate standards were used to convert the absorbance readings of each sample into phosphate concentrations and the negative control was subtracted from each reaction.
Enzymes of interest were assayed against ATP substrate. The ATPase activity was measured at 0.05 ppm concentration in 50 mM IVIES buffer pH 6 and pH 5 with 0.1 mM ATP as substrate as described in Example 1. Commercial potato apyrase was used as reference. The absorbance at 620 nm was measured and the absorbance of a blank sample (water) was subtracted from each sample.

[3] = test system: Acute DSS colitis in C57BL/6 mice; assay: Chemically-induced DSS colitis mouse model, disease activity index (DAI); assay type: in vivo
From the text: Acute DSS colitis was induced in C57BL/6 mice according to the previously published method with minor modification (Sann et al., 2013, Life Sci. April 9; 92(12):708-18). The mice were fed 3% (w/v) DSS dissolved in the drinking water on day one to day five. Fresh DSS solution was provided every other day. Control mice (Group 1) drank only distilled water. Groups 4 to 8 received candidate acid phosphatase enzymes by oral gavage and groups 9 to 12 received enzymes via catheter (Table 2). DAI was calculated as described earlier (Cooper et al., 1993, Laboratory investigation; a journal of technical methods and pathology. 69(2):238-49).

[4] = Enzyme substrate specificity on nucleotide substrates (malachite green assay); assay type: biochemical; conditions: FIG. 3; bis-Tris pH 6.5 (CRC21323, CRC21322 acetate pH 4.5; CD39 pH 7)
Protocol: Enzyme activity towards ATP or ADP at pH 3 to 9: The ability of candidate enzymes to degrade ATP or ADP to AMP and free phosphate (Pi) was measured using a standard malachite green phosphate detection kit (Sigma Aldrich cat no. MAK307). The enzyme reactions were carried out in 96-well plates with a total volume of 150 μL and contained 250 μM of a substrate, 50 mM of a buffer, 5 mM CaCl2, and a variable concentration of enzyme. The substrate was ATP or ADP. The buffer was glycine (pH 3), acetate (pH 4, 4.5, 5), bis-Tris (pH 5.5, 6, 6.5), or Tris (pH 7, 8, 9). […] The enzyme concentration was determined by the absorbance at 280 nm and using the predicted molecular weight and molar extinction coefficient to calculate the concentration. […] The malachite green reaction mixture was allowed to rest at room temperature for 45-60 min and the absorbance at 620 nm was measured. Lastly, the absorbance of the phosphate standards were used to convert the absorbance readings of each sample into phosphate concentrations and the negative control was subtracted from each reaction.
Enzyme substrate specificity: The activity of the enzymes on different nucleotide substrates was tested using the malachite green assay. […] After converting the absorbance to phosphate concentration, the activity of each enzyme was set relative to the activity on ATP.

Row | Molecule | stability in acid resistance assay [1] | Activity on ATP (absorbance at 620 nm, blank subtracted), pH 5.0 [2] | Activity on ATP (absorbance at 620 nm, blank subtracted), pH 6.0 [2] | reduction in DAI score compared to control ([3]; catheterized mice, test items via cecum BID, FIG. 6A, 6B) | improvement in DAI score compared to control ([3]; non-catheterized mice, oral gavage BID, FIG. 5A, 5B) | activity on different nucleotide substrate relative to ATP [4] | residual activity after incubation at pH 2 ([1]; 60 min in acid buffer, 50 mM glycine, 5 mM CaCl2)
1 | B1 | least stable | 0.40 | 0.07 | – | – | – | –
2 | B2 | least stable | 0.39 | 0.10 | 40% | 43% | – | –
3 | B3 | – | 0.26 | 0.28 | – | – | noticeably reduced activity on UTP/UDP and CTP/CDP | –
4 | B4 | – | 0.45 | 0.27 | – | – | – | greatest resistance
